B1: HDV Ribozyme (parent)
chain: GGCCGGCAUGGUCCCAGCCUCCUCGCUGGCGCCGGCUGGGCAACAUUCCGAGGGGACCGUCCCCUCGGUAAUGGCGAAUGGGACCCA

Variants of: B1
Test: self-cleavage, relative activity (ratio to wild type); higher = more cleavage; co-transcriptional

Variant | self-cleavage
U65A G80A | 0.201
C19G C49G | 0.0426
A42U C84U | 0.181
C30U A87G | 0.699
U47G C62U | 0.923
U12G C14U | 1.2
C41A U47G | 1.08
U72C C86G | 0.277
C85U C86G | 0.946
C33A C66A | 0.485
A43C U79A | 0.0791
C18U G68A | 0.739
C18U C26U | 0.848
U27G G34U | 0.538
G1U G34U | 0.215
C13U A45C | 0.365
U47C C63A | 0.739
G68U G74A | 0.328
U37C A70C | 1.04
C19A G53A | 0.149
A77C A78C | 0.208
G6U G80C | 0.0898
C3U A45C | 0.43
G50U C86G | 0.811

Variant | self-cleavage
G1A C4U | 0.252
G59U C75G | 0.123
U23A C85U | 0.98
U20G G34A | 0
G6A C66U | 0.521
G68U A77G | 0.578
C36U C41G | 0.45
C21A G25U | 0.113
C15A C49A | 0.974
C22U C30U | 0.194
U9G G34A | 0.344
U9G U46C | 0.748
U69A A78G | 0.959
G74C C75G | 0.0386
C7A G50U | 0.475
C13U C61A | 0.47
G28A U69A | 0.166
G28C C30A | 0
C26U C41A | 1.15
G28A C61A | 0.0791
A51U G59A | 0.889
A43U C64G | 0.506
C4G C61G | 0.325
U60C C84A | 0.698

Variant | self-cleavage
A16C C21A | 0.0437
G40A C41U | 0.87
A43C G73A | 0.407
C22A G73A | 0.0723
G29C G68A | 0.163
U12A A42G | 0.256
G38A G67U | 0.135
C32U A42U | 0.591
G2C G81U | 0.0203
C19U G81U | 0.131
G6A A77C | 0.178
U20C G80A | 0.0496
C18G C62G | 0
C18G A71G | 0
G39A G81A | 0.0898
C33A C58U | 0.142
U9A C66U | 1.01
C15U G76U | 1.2
A42G A45C | 0.399
C36U U37A | 0.0978
G67C A83C | 0.293
C22U G67A | 0.522
C44G G73U | 0.397
C14G C24U | 0.403

Variant | self-cleavage
C26U G68C | 1.03
U23A C64A | 0.814
U37G G59U | 0.256
G31U C66A | 0.45
U9G U72A | 0.633
C14U A56G | 1.16
G40A U65A | 0.914
U72C A78G | 0.237
C7G G25A | 0.104
U60G G74A | 0.227
C22U A71C | 0.623
G54A C61A | 1.07
A16G U46A | 0.646
C15A G67C | 0.782
C41A G67A | 0.914
G40A C61G | 1.17
G1C G6A | 0.0554
U23C G80U | 0.16
G40C C49G | 0.261
G35C G81U | 0.0739
C32U G52C | 0.751
G1C C19U | 0
C7A A83G | 0.141
C30G A70G | 0.0739

Variant | self-cleavage
G11C U79C | 0.121
G31A G40U | 0.112
U69A A71U | 1.27
C13A A42G | 0.142
A8C U47C | 0.665
A71U G74U | 0.689
C24U U37A | 0.18
C33U C86G | 0.884
G28A C86G | 0.0678
G50U A70U | 0.946
C36U G73U | 0.0692
C24A A77C | 0.185
A8U U9G | 0.997
C33A U37G | 0.119
C26U C63G | 0.883
G35A A42U | 0.166
G6A G81U | 0.0773
C22U A87U | 0.644
C4G G67U | 0.227
C41G U47A | 1.12
C19A G54U | 0.201
G54U C62U | 0.98
C21G U27G | 0
G29C C64A | 0.0755

Variant | self-cleavage
C58G U65A | 0.944
C22G C41A | 0.0346
G10C G34A | 0.166
C19U C84A | 0.0554
C15U C19G | 0.0997
C18U C48U | 0.639
A43C A70U | 0.322
G35A U46G | 0
A45C C48A | 0.779
G35C C86A | 0.212
G11A G29C | 0.123
A56G G74U | 0.564
U60A C86A | 0.577
G10U A56C | 0.878
U65C A71C | 0.703
C30G C44A | 0.0875
C21U G80U | 0.0919
U23A C30G | 0
A43U A45U | 0.594
G40A C66A | 0.808
G34U A51U | 0.169
C64G U69G | 0.91
U27C G59U | 0.76
C21U G39C | 0.201

Variant | self-cleavage
A16G G28A | 0.131
C13G A45U | 0.0346
C7G C19G | 0.0791
G31C U69C | 0.534
G11A U60A | 0.356
C4U C41A | 0.434
G28C A42C | 0.0437
C24U U72G | 0.323
G52U A70G | 0.878
U37A A70G | 0.214
A42U U69C | 0.437
C44G C86U | 0.897
C61G C86U | 0.772
U47G C84A | 0.965
U12G C33G | 0
C18G A77G | 0.0755
C3U G25C | 0.113
C58G C63A | 0.813
C26A G80A | 0.544
A8G C63U | 1.26
U47C G67A | 0.923
G59A U65A | 0.933
A56U A71G | 0.762

Source: the RNAGym collection of RNA variant scans (doi:10.7554/elife.80360)
